US20140348834A1 (published 2014)

B1: IL17-TN-L7-G9 (antibody, V domains shown)
VH: EVQLLESGGGVVQPGRSLRLSCAASGFIFSNYGMHWVRQAPGKGLEWVAVISYDGSNKYYADSVKGRFTISRDNSKNTLYLEMNSLRPEDTAVYYCAKVGASGDYYYSYGLDVWGQGTTVTVSS
VL: QSGLTQPPSASGTPGQTVSISCSGSNSNIGSHSVNWYQQVPGAAPKLLMYGIGQRPSGVPDRFSVSQSGTSASLAISGLQSEDEADYYCATWDDSLGGYVFGSGTKVTVLG
notes: Fully human antibody
B2: IL17-G9-1 (antibody, V domains shown)
VH: EVQLLESGGGVVQPGRSLRLSCAASGFIFSNYGMHWVRQAPGKGLEWVAVISYDGSNKYYADSVKGRFTISRDNSKNTLYLEMNSLRPEDTAVYYCAKVGASGDYYYSYGLDVWGQGTTVTVSS
VL: QSVLTQPPSASGTPGQTVSISCSGSHSNIGRHPVDWYQQVPGAAPKLLMYYGGYRPSGVPDRFSGSQSGTSASLAISGLQSEDEADYYCATWDDRLVGYVFGSGTKVTVLG
B3: IL17-h10F7.5 (antibody, V domains shown)
VH: EVQLVQSGAEVKKPGSSVKVSCKASGYTFTDYEIHWVRQAPGQGLEWMGVNDPESGGTFYNQKFDGRVTITADKSTSTAYMELSSLRSEDTAVYYCARYYRYESFYGMDYWGQGTTVTVSS
VL: DIQLTQSPSSLSASVGDRVTITCSASSSISYIYWFQQKPGKSPKRWIYATFELASGVPSRFSGSGSGTDYTLTISSLQPEDFATYYCHQRSSYPWTFGQGTKLEIKR
notes: IgG; constant regions not specified
B4: IL17-h10F7.3 (antibody, V domains shown)
VH: EVQLVQSGAEVKKPGSSVKVSCKASGYTFTDYEIHWVRQAPGQGLEWIGVNDPESGGTFYNQKFDGRATLTADKSTSTAYMELSSLRSEDTAVYYCTRYYRYESFYGMDYWGQGTTVTVSS
VL: DIQMTQSPSSLSASVGDRVTITCSASSSISYIYWYQQKPGKAPKRLIYATFELASGVPSRFSGSGSGTDFTLTISSLQPEDFATYYCHQRSSYPWTFGQGTKLEIKR
notes: as for B3
B5: IL17-h10F7.12 (antibody, V domains shown)
VH: EVQLVQSGAEVKKPGSSVKVSCKASGYTFTDYEIHWVRQAPGQGLEWMGVNDPESGGTFYNQKFDGRVTITADKSTSTAYMELSSLRSEDTAVYYCARYYRYESFYGMDYWGQGTTVTVSS
VL: QIVLTQSPSSLSASVGDRVTITCSASSSISYIYWFQQKPGKSPKRWIYATFELASGVPSRFSGSGSGTDYTLTISSLQPEDFATYYCHQRSSYPWTFGQGTKLEIKR
notes: as for B3
B6: IL17-h10F7.14 (antibody, V domains shown)
VH: EVQLVQSGAEVKKPGSSVKVSCKASGYTFTDYEIHWVRQAPGQGLEWMGVNDPESGGTFYNQKFDGRVTITADKSTSTAYMELSSLRSEDTAVYYCARYYRYESFYGMDYWGQGTTVTVSS
VL: EIVLTQSPSSLSASVGDRVTITCSASSSISYIYWFQQKPGKSPKRWIYATFELASGVPSRFSGSGSGTDYTLTISSLQPEDFATYYCHQRSSYPWTFGQGTKLEIKR
notes: as for B3
B7: IL17-h10F7.10 (antibody, V domains shown)
VH: EVQLVQSGAEVKKPGSSVKVSCKASGYTFTDYEIHWVRQAPGQGLEWMGVNDPESGGTFYNQKFDGRVTITADKSTSTAYMELSSLRSEDTAVYYCARYYRYESFYGMDYWGQGTTVTVSS
VL: EIVLTQSPDFQSVTPKEKVTITCSASSSISYIYWFQQKPDQSPKRWIYATFELASGVPSRFSGSGSGTDYTLTINSLEAEDAATYYCHQRSSYPWTFGQGTKLEIKR
notes: as for B3
B8: IL17-h10F7.7 (antibody, V domains shown)
VH: EVQLVQSGAEVKKPGSSVKVSCKASGYTFTDYEIHWVRQAPGQGLEWMGVNDPESGGTFYNQKFDGRVTITADKSTSTAYMELSSLRSEDTAVYYCARYYRYESFYGMDYWGQGTTVTVSS
VL: EIVLTQSPDFQSVTPKEKVTITCSASSSISYIYWYQQKPDQSPKLLIKATFELASGVPSRFSGSGSGTDFTLTINSLEAEDAATYYCHQRSSYPWTFGQGTKLEIKR
notes: as for B3
B9: IL17-h10F7.8 (antibody, V domains shown)
VH: EVQLVQSGAEVKKPGSSVKVSCKASGYTFTDYEIHWVRQAPGQGLEWIGVNDPESGGTFYNQKFDGRATLTADKSTSTAYMELSSLRSEDTAVYYCTRYYRYESFYGMDYWGQGTTVTVSS
VL: EIVLTQSPDFQSVTPKEKVTITCSASSSISYIYWYQQKPDQSPKLLIKATFELASGVPSRFSGSGSGTDFTLTINSLEAEDAATYYCHQRSSYPWTFGQGTKLEIKR
notes: as for B3
B10: IL17-h10F7.16 (antibody, V domains shown)
VH: EVQLVQSGAEVKKPGSSVKVSCKASGYTFTDYEIHWVRQAPGQGLEWMGVNDPESGGTFYNQKFDGRVTITADKSTSTAYMELSSLRSEDTAVYYCARYYRYESFYGMDYWGQGTTVTVSS
VL: QIVLTQSPDFQSVTPKEKVTITCSASSSISYIYWFQQKPDQSPKRWIYATFELASGVPSRFSGSGSGTDYTLTINSLEAEDAATYYCHQRSSYPWTFGQGTKLEIKR
notes: as for B3

Target: cyno IL-17A (cynomolgus monkey, UniProt A0A2K5TTB0 24-155)
Experiment: SPR Biacore, captured binder
Protocol: (§1) The binding of antibodies to purified recombinant human, cyno, rat, mouse, rabbit IL-17 and human IL-17A/F were determined by surface plasmon resonance-based measurements with a Biacore® 3000 instrument (Biacore® AB, Uppsala, Sweden) using running HBS-EP (10 mM HEPES [pH 7.4], 150 mM NaCl, 3 mM EDTA, and 0.005% surfactant P20) at 25° C. […] Approximately 5000 RU of goat anti-mouse or anti-human IgG (Fcγ) fragment specific polyclonal antibody (Pierce Biotechnology Inc, Rockford, Ill.) diluted in 10 mM sodium acetate (pH 4.5) was directly immobilized across a CM5 research grade biosensor chip using a standard amine coupling kit according to manufacturer's instructions and procedures at 25 μg/ml. Unreacted moieties on the biosensor surface were blocked with ethanolamine. Modified carboxymethyl dextran surface in flowcell 2 and 4 was used as a reaction surface. Unmodified carboxymethyl dextran without goat anti-mouse or anti-human IgG in flow cell 1 and 3 was used as the reference surface. For kinetic analysis, rate equations derived from the 1:1 Langmuir binding model were fitted simultaneously to association and dissociation phases of all eight injections (using global fit analysis) with the use of Biaevaluation 4.0.1 software. Purified antibodies were diluted in HEPES-buffered saline for capture across goat anti-mouse or anti-human IgG specific reaction surfaces. Antibodies to be captured as a ligand (25 μg/ml) were injected over reaction matrices at a flow rate of 5 μl/min. The association and dissociation rate constants, kon (unit M-1s-1) and koff (unit s-1) were determined under a continuous flow rate of 25 μl/min. Rate constants were derived by making kinetic binding measurements at ten different antigen concentrations ranging from 10 nM to 200 nM. The equilibrium dissociation constant (unit M) of the reaction between antibodies and recombinant purified IL-17 antigens was then calculated from the kinetic rate constants by the following formula: KD=koff/kon. Binding was recorded as a function of time and kinetic rate constants are calculated. In this assay, on-rates as fast as 10⁶ M⁻¹ s⁻¹ and off-rates as slow as 10⁻⁶ s⁻¹ can be measured.

Sequence of cyno IL-17A (A0A2K5TTB0 entry or part of it): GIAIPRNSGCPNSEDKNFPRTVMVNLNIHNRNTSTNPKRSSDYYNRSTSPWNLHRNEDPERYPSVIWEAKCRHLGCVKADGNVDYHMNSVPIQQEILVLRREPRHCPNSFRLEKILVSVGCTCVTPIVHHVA

| Binder | Kd [nM] | koff [s⁻¹] | kon [M⁻¹ s⁻¹] |
| --- | --- | --- | --- |
| B1 | 2.07 | 0.000199 | 96000 |
| B2 | 0.00296 | 1e-06 | 338000 |

Target: T1, human IL-17A/F (human, UniProt Q16552 24-155; Q96PD4 31-163)
T1 construct: Heterodimer of IL-17A and IL-17F, purified recombinant; also called HuIL-17A/F; Hu IL-17A/F
Experiment: SPR Biacore, captured binder
Protocol: as §1

T1 sequence (Q16552 24-155 limits assumed, chain 1 of 2): as the sequence (A0A2K5TTB0 entry or part of it) above, with A3T, S8P, S34N, V77I, K78N, R104P counted along it
T1 sequence (Q96PD4 31-163 limits assumed, chain 2 of 2): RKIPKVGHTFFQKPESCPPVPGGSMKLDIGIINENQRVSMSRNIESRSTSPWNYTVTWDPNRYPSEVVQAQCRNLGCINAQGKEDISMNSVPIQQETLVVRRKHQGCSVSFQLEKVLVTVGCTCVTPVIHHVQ

| Binder | Kd [nM] | koff [s⁻¹] | kon [M⁻¹ s⁻¹] |
| --- | --- | --- | --- |
| B1 | 0.907 | 9.7e-05 | 107000 |
| B2 | 0.00313 | 1e-06 | 320000 |

Target: T2, human IL-17A (human, UniProt Q16552 24-155)
T2 construct: Purified recombinant; biotinylated in the ELISA; also called HuIL-17A; Hu IL-17A
Experiment: SPR Biacore, captured binder
T2 sequence (Q16552 24-155 limits assumed): as the sequence (A0A2K5TTB0 entry or part of it) above, with A3T, S8P, S34N, V77I, K78N, R104P counted along it
Protocol: as §1

| Binder | Kd [nM] | koff [s⁻¹] | kon [M⁻¹ s⁻¹] |
| --- | --- | --- | --- |
| B1 | 0.28 | 8.65e-05 | 309000 |
| B2 | 0.0257 | 1.05e-05 | 408000 |

Target: T3, human IL-17A (human, UniProt Q16552 24-155)
T3 construct: Recombinant; biotinylated in the ELISA; also called hIL-17; hIL17A
Experiment: hIL17A ELISA
T3 sequence (Q16552 24-155): as the sequence (A0A2K5TTB0 entry or part of it) above, with A3T, S8P, S34N, V77I, K78N, R104P counted along it
Protocol: The following protocol is used to characterize the binding of IL-17 antibodies to human IL-17 by enzyme-linked immunosorbent assay (ELISA). […] Coat ELISA plate with 50 μl per well of Goat anti Mouse IgG-Fc at 2 ug/ml, overnight at 4° C. […] Wash plate 3×PBS/Tween. […] Add 50 μl Mab diluted to 1 μg/ml in PBS/0.1% BSA to appropriate wells. Incubate 1 hr at room temperature (RT). […] Wash plate 3× with PBS/Tween. […] Add 50 μl of serial diluted biotin-IL17 (human IL-17, IL-17A/F, cyno IL-17) to appropriate wells. Incubate 1 hr at room temperature (RT). […] Wash plate 3× with PBS/Tween. […] Incubate 1 hr at RT. […] Wash plate 3× with PBS/Tween. […] Stop reaction with 50 μl 2N H₂SO₄. […] Read absorbance at 450 nm.

| Binder | EC50 [nM] |
| --- | --- |
| B3 | 0.06 |
| B4 | 0.05 |
| B5 | 0.14 |
| B6 | 0.13 |
| B7 | 0.04 |
| B8 | 0.05 |
| B9 | 3.9 |
| B10 | 0.09 |
